Tested on: RBP7910 (Trypanosoma brucei)
Assay: MST
Conditions: RBB50: 20 mM HEPES pH 7.6, 150 mM KCl, 5 mM MgCl2, 100 ug/mL BSA, 10% glycerol, 50 nM oligo, room temperature 30-60 min, errors are 68% confidence

Row | Sequence | Kd [µM]
1 | GGUGGGUUAUUUUUUUUUUUUUAUCAACUGGG / CCCAGUUGAUAAAAAAAAAAAAAUAACCCACC [r(UUUU)3 ds] | 1.71
2 | GGUGGGUUAUAUUCAUUCAUUCAUCAACUGGG / CCCAGUUGAUGAAUGAAUGAAUAUAACCCACC [r(AUUC)3 ds] | 1.23
3 | GGUGGGUUAUCGCGCGCGCGCGAUCAACUGGG [r(GC)6 ss] | 2.03
4 | GGUGGGUUAUAUUUAUUUAUUUAUUUAUCAACUGGG [r(AUUU)4 ss] | 0.18
5 | GGUGGGUUAUUUUUUUUUUUUUAUCAACUGGG [r(UUUU)3 ss] | 0.147
6 | GGUGGGUUAUCGCGCGCGCGCGAUCAACUGGG / CCCAGUUGAUCGCGCGCGCGCGAUAACCCACC [r(GC)6 ds] | 3.22
7 | GGUGGGUUAUAUUCAUUCAUUCAUCAACUGGG [r(AUUC)3 ss] | 0.272
8 | GGUGGGUUAUUAUAUAUAUAUAAUCAACUGGG / CCCAGUUGAUUAUAUAUAUAUAAUAACCCACC [r(UA)6 ds] | 1.34
9 | GGTGGGTTATCGCGCGCGCGCGATCAACTGGG (double strand) [d(GC)6 ds] | 0.444
10 | GGUGGGUUAUAUUUAUUUAUUUAUUUAUCAACUGGG / CCCAGUUGAUAAAUAAAUAAAUAAAUAUAACCCACC [r(AUUU)4 ds] | 1.88
11 | GGUGGGUUAUUAUAUAUAUAUAAUCAACUGGG [r(UA)6 ss] | 0.88
12 | GGTGGGTTATCGCGCGCGCGCGATCAACTGGG [d(GC)6 ss] | 0.022

From publication PMC10574248
